Assay results published in article PMC11014345, “Lethal perturbation of an Escherichia coli regulatory network is triggered by a restriction-modification system's regulator and can be mitigated by excision of the cryptic prophage Rac” (Nucleic Acids Research, 2023).

Molecular target: the molecule itself
Assay: SEC; Superdex 75 10/300 GL, 0.5 mg protein loaded, 50 mM potassium phosphate buffer pH 7.0, 150 mM NaCl, 0.5 ml/min; column calibrated with marker proteins; self-association of RacR (octamer)

B1: C-terminally-6His-tagged RacR repressor (natural protein, Escherichia coli K-12 (Rac prophage), UniProt P76062 1-158, looked up)
chain: MLSGKDLGRAIEQAINKKIASGSVKSKAEVARHFKVQPPSIYDWIKKGSISKDKLPELWRFFSDVVGPEHWGLNEYPIPTPTNSDTKSELLDINNLYQAASDEIRAIVAFLLSGNATEPDWVDHDVRAYIAAMEMKVGKYLKALESERKSQNITKTGT
notes: RacR repressor of the cryptic Rac prophage of Escherichia coli K-12; predicted size of the 6His-tagged monomer 18.5 kDa; not shown: 6His, C-terminal, kept
stoichiometry N: 8
